Measurements published in patent US6627193.

B1: TLCK-inactivated RgpB (protein)
chain: YTPVEEKENGRMIVIVAKKYEGDIKDFVDWKNQRGLRTEVKVAEDIASPVTANAIQQFVKQEYEKEGNDLTYVLLVGDHKDIPAKITPGIKSDQVYGQIVGNDHYNEVFIGRFSCESKEDLKTQIDRTIHYERNITTEDKWLGQALCIASAEGGPSADNGESDIQHENVIANLLTQYGYTKIIKCYDPGVTPKNIIDAFNGGISLVNYTGHGSETAWGTSHFGTTHVKQLTNSNQLPFIFDVACVNGDFLFSMPCFAEALMRAQKDGKPTGTVAIIASTIDQYWAPPMRGQDEMNEILCEKHPNNIKRTFGGVTMNGMFAMVEKYKKDGENMLDTWTVFGDPSLLVRTLVPTEMQVTAPANISASAQTFEVACDYNGAIATLSDDGDMVGTAIVKDGKAIIKLNESIADETNLTLTVVGYNKVTVIKDVKVEGTSIADVANDKPYTVAVSGKTITVESPAAGLTIFDMNGRRVATAKNRMVFEAQNGVYAVRIATEGKTYTEKVIVK
B2: RgpB (50 kDa gingipain R, RGP-2) from Porphyromonas gingivalis HG66 (protein)
chain: B1 chain

Molecular target: purified human protein C (PC), P04070
Sequence (P04070 whole entry, looked up): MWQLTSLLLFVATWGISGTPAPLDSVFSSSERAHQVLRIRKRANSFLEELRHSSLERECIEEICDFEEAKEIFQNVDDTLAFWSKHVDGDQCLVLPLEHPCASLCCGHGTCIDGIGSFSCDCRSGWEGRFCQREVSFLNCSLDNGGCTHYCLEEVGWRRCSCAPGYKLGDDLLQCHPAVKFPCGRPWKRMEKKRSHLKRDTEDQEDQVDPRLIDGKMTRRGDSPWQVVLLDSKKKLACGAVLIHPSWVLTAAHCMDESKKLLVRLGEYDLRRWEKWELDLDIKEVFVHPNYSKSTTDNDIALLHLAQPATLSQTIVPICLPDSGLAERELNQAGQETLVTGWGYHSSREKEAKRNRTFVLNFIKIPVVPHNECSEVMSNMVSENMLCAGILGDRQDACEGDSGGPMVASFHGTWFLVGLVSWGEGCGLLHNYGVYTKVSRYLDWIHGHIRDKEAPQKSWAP

Row | Protein | APC activity generated from purified PC | APC activity generated from purified PC (amidolytic assay with Boc-Leu-Ser-Thr-Arg-MCA) | APC activity generated in human plasma | Km (activation of human protein C) | kcat (activation of human protein C) | kcat/Km (activation of human protein C)
1 | B1 | TLCK-treated enzymes did not induce PC activation |  |  |  |  | 
2 | B2 |  | Both proteinases generated APC linearly in a dose- and incubation time-dependent manner | with RgpB negligible APC was detected | 3.8 µM | 0.015 s⁻¹ | 3900 M⁻¹ s⁻¹
